4 molecules from patent publication US6617117B1, “MAP kinases: polypeptides, polynucleotides and uses thereof” (Medical Research Council, priority 1996, dated 2003) can be followed below.

What all share (type): biochemical
The target of one experiment is T1, human SAPK2b (Homo sapiens, UniProt Q15759).
T1 construct: a number of SAPK2b clones, some of which were full-length; made in house; host or cells: E. coli BL21(DE3)
As to the kind of experiment: Substrate specificity: rate of phosphorylation by SAPK2b (Table 1). The settings on record: substrate 1 μm; SAPK 0.15 U/ml; means ± SEM of six determinations. The protocol: (§1) Experiments were carried out with the Xenopus homologue of SAPK2a, human SAPK2b and human SAPK4. The SAPKs were activated in vitro (FIG. 7) and phosphorylation of each protein was studied at a SAPK concentration of 0.15 U/ml. The results are presented as means±SEM of six determinations (two separate experiments). The data for rat SAPK3 are taken from Example 4 and Cuenda et al (1997).

In another experiment the target is T2, rat SAPK3 (Rattus norvegicus, UniProt Q63538).
T2 construct: made in house; host or cells: E. coli BL21 (DE3)
T2 sequence (Q63538 1-367): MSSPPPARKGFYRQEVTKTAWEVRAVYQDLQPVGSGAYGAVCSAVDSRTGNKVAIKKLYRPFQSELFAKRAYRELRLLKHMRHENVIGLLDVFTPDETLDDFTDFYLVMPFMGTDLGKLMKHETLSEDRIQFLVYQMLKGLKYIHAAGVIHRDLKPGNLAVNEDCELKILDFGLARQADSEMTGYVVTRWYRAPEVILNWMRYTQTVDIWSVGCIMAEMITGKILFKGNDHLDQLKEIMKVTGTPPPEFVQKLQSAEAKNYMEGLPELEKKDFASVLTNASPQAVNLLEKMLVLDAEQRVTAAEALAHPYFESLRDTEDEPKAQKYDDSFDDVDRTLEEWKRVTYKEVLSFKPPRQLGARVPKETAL
As to the kind of experiment: Substrate specificity: rate of phosphorylation by SAPK3 (Tables 1 and 2). The settings on record: for Rate of phosphorylation relative to MBP, SAPK3: substrate 1 μM, SAPK 0.1 U/ml; for Rates of phosphorylation relative to MBP, SAPK3: substrate 1 μm, rat SAPK3 data taken from Example 4 and Cuenda et al (1997). The protocol: as §1
(§2) Protein kinase assays. SAPK3 was assayed routinely by the phosphorylation of MBP. […] After 20 min at 30° C.
(§3) Table 2. Comparison of substrate specificities of SAPK2 and SAPK3. SAPK2 and SAPK3 were activated in vitro (FIG. 15) and phosphorylation of each protein studied at a SAPK concentration of 0.1 U/ml.

Experiment [1] concerns the target T3, SAPK2 (Xenopus homologue) (Xenopus laevis, UniProt P47812).
T3 construct: made in house; host or cells: E. coli
As to the kind of experiment: Substrate specificity: rate of phosphorylation by SAPK2 (Table 2). The note with it: substrate 1 μM; SAPK 0.1 U/ml. Here is the method: as §2, §3

The target of the next experiment is T4, SAPK4 (Homo sapiens, UniProt O15264).
T4 sequence (O15264 1-365): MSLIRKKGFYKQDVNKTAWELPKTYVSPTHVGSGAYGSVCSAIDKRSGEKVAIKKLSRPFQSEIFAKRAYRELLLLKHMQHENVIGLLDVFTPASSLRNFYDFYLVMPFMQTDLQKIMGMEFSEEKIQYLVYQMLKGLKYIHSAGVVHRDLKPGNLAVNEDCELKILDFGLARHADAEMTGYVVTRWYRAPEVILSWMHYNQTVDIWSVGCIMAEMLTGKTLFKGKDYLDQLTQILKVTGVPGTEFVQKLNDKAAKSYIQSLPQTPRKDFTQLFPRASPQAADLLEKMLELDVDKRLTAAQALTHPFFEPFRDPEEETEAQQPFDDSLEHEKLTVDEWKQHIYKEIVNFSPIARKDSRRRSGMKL
As to the kind of experiment: Substrate specificity: rate of phosphorylation by SAPK4 (Table 1). Further details: made in house; host or cells: E. coli BL21(DE3). The settings on record: substrate 1 μm; SAPK 0.15 U/ml; means ± SEM of six determinations. The protocol: as §1
SAPK4 is assayed routinely by the phosphorylation of MBP. […] After washing and drying the papers (Alessi et al, 1995 Meth. Enzymol. 255, 279-290) ^32P radioactivity incorporated into MBP is measured.

Experiment [2] concerns the target T5, Xenopus homologue of SAPK2a (Xenopus laevis, UniProt P47812).
T5 construct: made in house; host or cells: E. coli
As to the kind of experiment: Substrate specificity: rate of phosphorylation by SAPK2a (Table 1). The settings on record: substrate 1 μm; SAPK 0.15 U/ml; means ± SEM of six determinations. Here is the method: as §1

T3 sequence (P47812 whole entry): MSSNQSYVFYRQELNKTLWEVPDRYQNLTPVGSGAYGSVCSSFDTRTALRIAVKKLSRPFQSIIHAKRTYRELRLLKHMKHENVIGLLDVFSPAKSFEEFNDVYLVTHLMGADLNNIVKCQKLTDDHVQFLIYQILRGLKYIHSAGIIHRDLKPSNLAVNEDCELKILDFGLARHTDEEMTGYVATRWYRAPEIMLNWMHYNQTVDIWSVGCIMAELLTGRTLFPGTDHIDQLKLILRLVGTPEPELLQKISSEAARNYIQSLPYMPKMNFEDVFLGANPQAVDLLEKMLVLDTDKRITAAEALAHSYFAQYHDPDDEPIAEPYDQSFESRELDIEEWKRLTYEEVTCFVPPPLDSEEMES
T5 sequence (P47812 whole entry): as above
T1 sequence (Q15759 whole entry): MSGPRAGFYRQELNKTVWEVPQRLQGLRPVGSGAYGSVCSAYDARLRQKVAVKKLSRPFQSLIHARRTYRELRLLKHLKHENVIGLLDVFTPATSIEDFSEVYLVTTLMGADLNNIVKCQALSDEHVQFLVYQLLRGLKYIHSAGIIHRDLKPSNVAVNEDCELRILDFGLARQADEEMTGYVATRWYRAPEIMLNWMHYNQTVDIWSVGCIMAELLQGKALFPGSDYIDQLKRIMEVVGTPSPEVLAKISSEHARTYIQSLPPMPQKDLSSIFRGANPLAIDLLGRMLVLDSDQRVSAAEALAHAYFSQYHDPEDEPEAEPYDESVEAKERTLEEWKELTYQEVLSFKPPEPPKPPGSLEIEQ

B1: c-Jun: transcription factor activation domain linked to GST, kinase substrate (protein)
chain: MTAKMETTFYDDALNASFLPSESGPYGYSNPKILKQSMTLNLADPVGSLKPHLRAKNSDLLTSPDVGLLKLASPELERLIIQSSNGHITTTPTPTQFLCPKNVTDEQEGFAEGFVRALAELHSQNTLPSVTSAAQPVNGAGMVAPAVASVAGGSGSGGFSASLHSEPPVYANLSNFNPGALSSGGGAPSYGAAG
modifications: left off: a dimerising Fc or GST
In the case of B1, in the experiment with human SAPK2b, the “Rates of phosphorylation relative to MBP, SAPK2b” value was determined as 7 ± 2%. Moreover, in the experiment with rat SAPK3, the “Rate of phosphorylation relative to MBP, SAPK3” value turned out to be 2 ± 1 and the “Rates of phosphorylation relative to MBP, SAPK3” value is reported as 2 ± 1%. In experiment [1], the “Rate of phosphorylation relative to MBP, SAPK2” value is 2 ± 1. For the same molecule, in the experiment with SAPK4, the “Rates of phosphorylation relative to MBP, SAPK4” value is recorded as 6 ± 2%. Moreover, in experiment [2], the “Rates of phosphorylation relative to MBP, SAPK2a” value came to 4 ± 1%.

B2: SAP-1: transcription factor activation domain linked to GST, kinase substrate (protein)
chain: TPSPPLSSHPDIDTDIDSVASQPMELPENLSLEPKDQDSVLLEKDKVNNSSRSKKPKGLELAPTLVITSSDPSPLGILSPSLPTASLTPAFFSQTPIILTPSPLLSSIHFWSTLSPVAPLSPARLQGANTLFQFPSVLNSHGPFTLSGLDGPSTPGPFSPDLQKT
modifications: left off: a dimerising Fc or GST
Regarding B2, the “Rates of phosphorylation relative to MBP, SAPK2b” value with human SAPK2b was 27 ± 5%. Further, in the experiment with rat SAPK3, the “Rate of phosphorylation relative to MBP, SAPK3” value was determined as 108 ± 15 and the “Rates of phosphorylation relative to MBP, SAPK3” value is 108 ± 15%. Moreover, the “Rate of phosphorylation relative to MBP, SAPK2” value in experiment [1] was found to be 55 ± 13. Moreover, the “Rates of phosphorylation relative to MBP, SAPK4” value in the experiment with SAPK4 came out at 62 ± 5%. Besides, the “Rates of phosphorylation relative to MBP, SAPK2a” value in experiment [2] was determined as 25 ± 1%.

B3: ATF2: transcription factor activation domain linked to GST, kinase substrate (protein)
chain: MSDDKPFLCTAPGCGQRFTNEDHLAVHKHKHEMTLKFGPARNDSVIVADQTPTPTRFLKNCEEVGLFNELASPFENEF
modifications: left off: a dimerising Fc or GST
Regarding B3, the “Rates of phosphorylation relative to MBP, SAPK2b” value in the experiment with human SAPK2b is listed as 62 ± 2%. In addition, in the experiment with rat SAPK3, the “Rate of phosphorylation relative to MBP, SAPK3” value is on record as 107 ± 20 and the “Rates of phosphorylation relative to MBP, SAPK3” value stood at 107 ± 20%. Moreover, in experiment [1], the “Rate of phosphorylation relative to MBP, SAPK2” value was 86 ± 20. The “Rates of phosphorylation relative to MBP, SAPK4” value with SAPK4 was found to be 130 ± 2%. Further, the “Rates of phosphorylation relative to MBP, SAPK2a” value in experiment [2] was found to be 40 ± 2%.

B4: MAPKAP-K3: MAP kinase-activated protein kinase-3, GST fusion used as kinase substrate (protein)
chain: MDGETAEEQGGPVPPPVAPGGPGLGGAPGGRREPKKYAVTDDYQLSKQVLGLGVNGKVLECFHRRTGQKCALKLLYDSPKARQEVDHHWQASGGPHIVCILDVYENMHHGKRCLLIIMECMEGGELFSRIQERGDQAFTEREAAEIMRDIGTAIQFLHSHNIAHRDVKPENLLYTSKEKDAVLKLTDFGFAKETTQNALQTPCYTPYYVAPEVLGPEKYDKSCDMWSLGVIMYILLCGFPPFYSNTGQAISPGMKRRIRLGQYGFPNPEWSEVSEDAKQLIRLLLKTDPTERLTITQFMNHPWINQSMVVPQTPLHTARVLQEDKDHWDEVKEEMTSALATMRVDYDQVKIKDLKTSNNRLLNKRRKKQAGSSSASQGCNNQ
modifications: left off: a dimerising Fc or GST
On to B4, for which, in the experiment with human SAPK2b, the “Rates of phosphorylation relative to MBP, SAPK2b” value came out at 66 ± 6%. Also, in the experiment with rat SAPK3, the “Rates of phosphorylation relative to MBP, SAPK3” value worked out at 20 ± 6%. In addition, the “Rates of phosphorylation relative to MBP, SAPK4” value in the experiment with SAPK4 came to 18 ± 2%. Besides, the “Rates of phosphorylation relative to MBP, SAPK2a” value in experiment [2] is listed as 87 ± 10%.
